Common to all, as to conditions: remark: other sources report otherwise
Test [1] concerns the target human MS4A4A (human), Q96JQ5. Briefly: functional affinity, FACS titration on stably transfected 300.19 cells.
Test [2] addresses human MS4A4A (human), Q96JQ5. Briefly: flow cytometry (anti-mouse IgG Fc-APC) on U937 cells transfected with human MS4A4A (Plate B); untransfected U937 cells (Plate A): mean 313.
The target of test [3] is human MS4A4A (human), Q96JQ5. Put plainly: flow cytometry (anti-mouse IgG Fc-APC) on 300.19 cells transfected with human MS4A4A (Plate D); untransfected 300.19 cells (Plate C): mean 122.

B1: anti-MS4A4A antibody 4A-21 (murine) (antibody, IgG1, V domains shown)
VH: QIQLVQSGPELKKPGETVKISCKASGYIFTSYGLSWVKQTPGKGLKWMGWINTYSGVPTYANDFKGRFAFSLETSASTTYLRINNLKNDDTATYFCARSLVDYWGQGTPLTVSS
VL: not shown
Regarding B1, in test [1], the Kd came to 14 nM. Further, the figures for the Mean : APC-A in test [2] and in test [3] were 7370 and 3600, respectively.

B2: anti-MS4A4A antibody 4A-21, huIgG1 chimera (antibody, V domains shown)
VH: B1 VH
VL: not shown
Consider B2, for which the equilibrium dissociation constant (Kd) in test [1] worked out at 8.7 nM.

Source of the values: patent US20230126400A1.
